Experimental data as given in patent US12329823B2 (The Scripps Research Institute, priority 2021, dated 2025).
Several values for one entry are separate records, joined by “and”; a condition that tells them apart may be missing. Identical values can stand only once.

Assays:
[1] = target: cynomolgous monkey GLP1R (Macaca fascicularis, UniProt F8V479); assay: In vitro potency, cynomolgous monkey GLP1R activation (receptor-mediated cAMP synthesis); format: cell-based; conditions: Table 12; read-out: In Vitro Potency GLP1R EC50, Cyno
Experimental: (§1) GLP-1R-CRE or HEK293-GIPR-CRE cells were seeded in 384-well plates at a density of 5000 cells per well and cultured for 18 h in DMEM with 10% FBS at 37° C. and 5% CO2. Cells were treated with peptides in a dose dependent manner for 24 h, and receptor activation was reported by luminescence intensities, using One-Glo (Promega, WI) luciferase reagent following manufacturer's instruction. The EC50 of each peptide was determined using GraphPad Prism 6 software (GraphPad, San Diego, CA). Results are depicted in FIGS. 6A-6B, FIGS. 7A-7B, FIGS. 8A-8B, FIGS. 9A-9B, and Tables 7-12. Measurements of peptide conjugate potency were expressed as half maximal effective concentration (EC50) values.

[2] = target: T1, dog GLP1R (Canis lupus familiaris, UniProt A0A8I3NUR9); assay: In vitro potency, dog GLP1R activation (receptor-mediated cAMP synthesis); format: cell-based; conditions: Table 12
T1 sequence (A0A8I3NUR9 1-464): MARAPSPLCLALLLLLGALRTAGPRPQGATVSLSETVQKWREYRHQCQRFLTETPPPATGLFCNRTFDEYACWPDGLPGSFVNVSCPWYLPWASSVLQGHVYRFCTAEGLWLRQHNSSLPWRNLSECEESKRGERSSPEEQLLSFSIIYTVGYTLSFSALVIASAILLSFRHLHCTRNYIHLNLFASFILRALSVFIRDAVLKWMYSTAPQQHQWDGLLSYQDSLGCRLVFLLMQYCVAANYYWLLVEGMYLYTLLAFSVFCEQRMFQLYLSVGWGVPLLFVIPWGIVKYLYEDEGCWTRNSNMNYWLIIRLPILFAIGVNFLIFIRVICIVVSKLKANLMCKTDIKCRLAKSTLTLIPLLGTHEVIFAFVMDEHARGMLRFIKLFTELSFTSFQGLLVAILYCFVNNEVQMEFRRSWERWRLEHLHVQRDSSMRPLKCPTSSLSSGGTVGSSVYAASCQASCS
Experimental: as §1

[3] = target: T2, dog GIPR (Canis lupus familiaris, UniProt A0A8I3MPG1); assay: In vitro potency, dog GIPR activation (receptor-mediated cAMP synthesis); format: cell-based; conditions: Table 12; read-out: In Vitro Potency GIPR EC50, Dog
T2 sequence (A0A8I3MPG1 24-449): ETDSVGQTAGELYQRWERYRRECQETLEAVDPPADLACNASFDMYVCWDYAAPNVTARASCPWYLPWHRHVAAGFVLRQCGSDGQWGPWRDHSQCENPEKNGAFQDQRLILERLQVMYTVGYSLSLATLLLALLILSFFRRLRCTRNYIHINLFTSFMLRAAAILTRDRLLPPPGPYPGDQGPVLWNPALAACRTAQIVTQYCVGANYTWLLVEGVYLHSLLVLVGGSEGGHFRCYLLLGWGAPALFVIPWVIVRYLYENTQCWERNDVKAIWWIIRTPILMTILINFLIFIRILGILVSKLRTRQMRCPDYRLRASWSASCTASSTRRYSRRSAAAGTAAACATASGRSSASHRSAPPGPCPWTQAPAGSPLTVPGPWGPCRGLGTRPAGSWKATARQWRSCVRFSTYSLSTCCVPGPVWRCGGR
Experimental: as §1

[4] = Pharmacokinetics in CD-1 mouse, I.V. or S.C. 1 mg/kg, plasma concentration by LC-MS; conditions: individual animals; for AUC(0-inf): AUCINF_pred; for MRT inf / MRT last: mouse, in vivo; for MRT inf: MRTINF_pred; for MRT last: MRTlast;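 as to all read-outs here: peptide levels in plasma quantified by LC-MS across multiple sampling times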
Experimental: The peptide plasma concentration at various time points was determined using LC-MS.

[5] = CD-1, mouse, plasma, iv, 1 mg/kg, Table 15, I.V. 1 mg/kg
[6] = CD-1, mouse, plasma, sc, 1 mg/kg, S.C.
[7] = Table 15, I.V. 1 mg/kg, 1 mg/kg
[8] = iv, 1 mg/kg, Table 15, I.V. 1 mg/kg

Chain of cynomolgous monkey GLP1R (F8V479 24-463): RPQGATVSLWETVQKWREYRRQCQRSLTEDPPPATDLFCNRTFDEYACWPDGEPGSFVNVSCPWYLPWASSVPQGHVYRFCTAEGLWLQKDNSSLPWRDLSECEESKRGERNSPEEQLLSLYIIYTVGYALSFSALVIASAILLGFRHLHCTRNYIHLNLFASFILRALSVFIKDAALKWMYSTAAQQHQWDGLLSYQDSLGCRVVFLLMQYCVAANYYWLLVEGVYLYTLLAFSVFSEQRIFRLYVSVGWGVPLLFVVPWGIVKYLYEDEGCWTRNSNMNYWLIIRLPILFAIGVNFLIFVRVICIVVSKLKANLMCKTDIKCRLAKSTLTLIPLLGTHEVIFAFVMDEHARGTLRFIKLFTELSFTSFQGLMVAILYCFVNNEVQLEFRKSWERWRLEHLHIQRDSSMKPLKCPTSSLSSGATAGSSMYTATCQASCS

CC[C@H](C)[C@H](NC(=O)[C@H](CC(C)C)NC(=O)[C@H](Cc1c[nH]c2ccccc12)NC(=O)[C@@H]1CSCC(=O)NCCN(C(=O)CCC(=O)NCCOCCOCCC(=O)NCCOCCOCCC(=O)NCCCC[C@H](NC(=O)CCCCCCCCCCCCCCCCC(=O)O)C(=O)O)CCNC(=O)CSC[C@H](NC(=O)[C@H](CCCCN)NC(=O)[C@H](CC(=O)O)NC(=O)[C@H](CC(C)C)NC(=O)[C@H](Cc2ccc(O)cc2)NC(=O)[C@@H](NC(=O)[C@H](CO)NC(=O)[C@H](Cc2ccc(O)cc2)NC(=O)[C@H](CC(=O)O)NC(=O)[C@H](CO)NC(=O)[C@@H](NC(=O)[C@H](Cc2ccccc2)NC(=O)[C@@H](NC(=O)CNC(=O)[C@H](CCC(=O)O)NC(=O)C(C)(C)NC(=O)[C@@H](N)Cc2ccc(O)cc2)[C@@H](C)O)[C@@H](C)O)[C@@H](C)CC)C(=O)N[C@@H](C)C(=O)N[C@@H](C)C(=O)NC(C)(C)C(=O)N[C@@H](CCC(=O)O)C(=O)N[C@@H](Cc2ccccc2)C(=O)N[C@@H](C(C)C)C(=O)N1)C(=O)N[C@@H](C)C(=O)NCC(=O)NCC(=O)N1CCC[C@H]1C(=O)N[C@@H](CO)C(=O)N[C@@H](CO)C(=O)NCC(=O)N[C@@H](C)C(=O)N1CCC[C@H]1C(=O)N1CCC[C@H]1C(=O)N1CCC[C@H]1C(=O)N[C@@H](CO)C(N)=O [mCMZ371, YAibEGT-FTSDY-SIYLD-KXAAAib-EFVXW-LIAGG-PSSGA-PPPS-NH2 (where each X is C) (SEQ ID NO: 61)]
EC50 [1]: 0.11 nM
EC50 [2]: 1.34 nM
EC50 [3]: 0.47 nM
AUC ([4]; CD-1, mouse, plasma, iv, 1 mg/kg, AUC0_24, Table 15, I.V. 1 mg/kg): 242 µg·h/mL
AUC(0-t) ([4]; CD-1, mouse, plasma, iv, 1 mg/kg, AUC last, Table 15, I.V. 1 mg/kg): 341 µg·h/mL
AUC(0-inf) [4, 5]: 344 µg·h/mL
C0 ([4]; CD-1, mouse, plasma, iv, 1 mg/kg, C0, Table 15, I.V. 1 mg/kg): 15.5 µg/mL
Cmax ([4]; CD-1, mouse, plasma, iv, 1 mg/kg, Cmax, Table 15, I.V. 1 mg/kg): 15.1 µg/mL
Tmax [4, 5]: 0.08 h
Vd ([4]; CD-1, mouse, plasma, iv, 1 mg/kg, Vss_pred, Table 15, I.V. 1 mg/kg): 0.051 L/kg
Vd ([4]; CD-1, mouse, plasma, iv, 1 mg/kg, Vz_pred, Table 15, I.V. 1 mg/kg): 0.038 L/kg
half-life ([4]; CD-1, mouse, plasma, iv, 1 mg/kg, t1/2, Table 15, I.V. 1 mg/kg): 9.13 h
AUC ([4]; CD-1, mouse, plasma, sc, 1 mg/kg, AUC0_24, CD-1 mouse, S.C.): 127 µg·h/mL
AUC(0-inf) [4, 6]: 274 µg·h/mL
AUC ([4]; CD-1, mouse, plasma, sc, 1 mg/kg, AUCall, S.C.): 267 µg·h/mL
CL/F ([4]; CD-1, mouse, plasma, sc, 1 mg/kg, Cl_Fpred, S.C.): 0.12 mL/min/kg
Tmax [4, 6]: 24 h
half-life ([4]; CD-1, mouse, plasma, sc, 1 mg/kg, t1/2, CD-1 mouse, S.C.): 10.7 h
AUC0_24 ([4]; CD-1 mouse, S.C., 1 mg/kg): 67.917 µg·h/mL and 95.28 µg·h/mL
AUCINF_pred ([4]; CD-1 mouse, S.C., 1 mg/kg): 143.707 µg·h/mL and 202.468 µg·h/mL
AUC_% Extrap_pred ([4]; CD-1 mouse, S.C., 1 mg/kg): 2.34% and 3.37% and 2.55%
AUCall ([4]; CD-1 mouse, S.C., 1 mg/kg): 138.868 µg·h/mL and 197.314 µg·h/mL
AUMC_% Extrap_pred ([4]; CD-1 mouse, S.C., 1 mg/kg): 7.05% and 10.52% and 7.78%
Cl_Fpred ([4]; CD-1 mouse, S.C., 1 mg/kg): 0.24 mL/min/kg
Cmax ([4]; CD-1 mouse, S.C., 1 mg/kg): 9.259 µg/mL and 3.389 µg/mL and 6.337 µg/mL
MRTINF_pred ([4]; CD-1 mouse, S.C., 1 mg/kg): 28.76 h and 28.77 h
MRTlast ([4]; CD-1 mouse, S.C., 1 mg/kg): 26.63 h and 27.22 h
Tlast ([4]; CD-1 mouse, S.C., 1 mg/kg): 72 h
V_F_pred ([4]; CD-1 mouse, S.C., 1 mg/kg): 0.06 L/kg and 0.12 L/kg and 0.08 L/kg
t1/2 ([4]; CD-1 mouse, S.C., 1 mg/kg): 12.36 h and 11.01 h
Tlast ([4]; Table 15, I.V. 1 mg/kg): 72 h
AUC0_24 [4, 7]: 255.418 µg·h/mL and 285.442 µg·h/mL
AUC last [4, 7]: 355.565 µg·h/mL and 403.09 µg·h/mL
AUCINF_pred [4, 7]: 359.258 µg·h/mL and 407.964 µg·h/mL
AUC_% Extrap_pred [4, 7]: 0.75% and 1.03% and 1.19%
AUMC_% Extrap_pred [4, 7]: 3.41% and 4.82% and 5.56%
C0 [4, 7]: 21.06 µg/mL and 24.603 µg/mL
Cmax [4, 7]: 20.91 µg/mL and 24.203 µg/mL
MRTINF_pred [4, 7]: 18.43 h and 18.65 h
MRTlast [4, 7]: 17.72 h and 17.83 h
Vss_pred [4, 7]: 0.054 L/kg and 0.046 L/kg
Vz_pred [4, 7]: 0.04 L/kg and 0.036 L/kg
t1/2 [4, 7]: 10 h and 10.31 h
MRT inf [4, 8]: 18.7 h
MRT last [4, 8]: 18.2 h
MRT inf ([4]; sc, 1 mg/kg, CD-1 mouse, S.C.): 29 h
MRT last ([4]; sc, 1 mg/kg, CD-1 mouse, S.C.): 27.6 h
